Source: the supplement of paper PMC7125110
± gives the standard error. For some assays here: This sample holds only a part of the variants without activity.

B1: glmS ribozyme (parent)
chain: AUAAAAGCGCCAGAACUACAGAAAUGUAGUUGACGAGGAGGAGGUUUAUCGAAUUUUCGGCGGAUGCCUCCAAA

What was measured:
Conditions in all cases: with glucosamine-6-phosphate
glucosamine-6-phosphate [1] = variants of: B1; assay: kcat; higher = faster cleavage; RNA array
How it was run: (§1)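 Tiles of sequenced MiSeq chips were imaged over ~14 h at 37 °C. On them, barcoded ribozyme variants had been transcribed in situ by E. coli RNA polymerase and were tracked via a hybridised Cy3 probe while glucosamine-6-phosphate (40 μM to 10 mM) in HEPES/KCl/Mg(OAc)2 buffer flowed in. Per-tile medians, normalised to baseline and to non-cleaving reference variants, were fit to one- or two-exponential decays for kobs, and weighted Michaelis–Menten fits gave kcat and KM.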

glucosamine-6-phosphate [2] = variants of: B1; assay: KM; higher = weaker cofactor use; RNA array
How it was run: as §1

glucosamine-6-phosphate [3] = variants of: B1; assay: self-cleavage kobs at 40 uM GlcN6P; higher = faster cleavage; RNA array
How it was run: as §1

glucosamine-6-phosphate [4] = variants of: B1; assay: self-cleavage kobs at 160 uM GlcN6P; higher = faster cleavage; RNA array
How it was run: as §1

glucosamine-6-phosphate [5] = variants of: B1; assay: self-cleavage kobs at 640 uM GlcN6P; higher = faster cleavage; RNA array
How it was run: as §1

glucosamine-6-phosphate [6] = variants of: B1; assay: self-cleavage kobs at 2500 uM GlcN6P; higher = faster cleavage; RNA array
How it was run: as §1

glucosamine-6-phosphate [7] = variants of: B1; assay: self-cleavage kobs at 10000 uM GlcN6P; higher = faster cleavage; RNA array
How it was run: as §1

| Variant | kcat (glucosamine-6-phosphate [1]) [s⁻¹] | KM (glucosamine-6-phosphate [2]) [µM] | self-cleavage kobs at 40 uM GlcN6P (glucosamine-6-phosphate [3]) [s⁻¹] | self-cleavage kobs at 160 uM GlcN6P (glucosamine-6-phosphate [4]) [s⁻¹] | self-cleavage kobs at 640 uM GlcN6P (glucosamine-6-phosphate [5]) [s⁻¹] | self-cleavage kobs at 2500 uM GlcN6P (glucosamine-6-phosphate [6]) [s⁻¹] | self-cleavage kobs at 10000 uM GlcN6P (glucosamine-6-phosphate [7]) [s⁻¹] |
| --- | --- | --- | --- | --- | --- | --- | --- |
| AUAAAAGCGCCAGAACUACAGAAAUGUAGUUGACGAGGAGGAGGUUUAUCGAGUUUUCGGCGGAUUCCUCCAAA [A53G G66U] | 0.00201 ± 0.0004 | 1650 ± 540 | 4.34e-05 ± 8.5e-06 | 0.000168 ± 3.4e-05 | 0.00056 ± 7.9e-05 | 0.00179 ± 0.00022 | 0.00154 ± 0.00019 |
| AUAAAAGCGCCAGAACUACAGAAAUGUAGUUGACGAGGAGGAGGUUUAUCGACUUUUCGGCGGAAGCCUCCAAA [A53C U65A] | 0.000359 ± 3.3e-05 | 1720 ± 320 | – | 3.15e-05 ± 1e-05 | 9.23e-05 ± 1.4e-05 | 0.00025 ± 3.8e-05 | 0.000294 ± 3.7e-05 |
| AUAAAAGCGCCAGAACUACAGAAAUGUAGUUGACGAGGAGGAGGUUUAUCGAGUAUUCGGCGGAUGCCUCCAAA [A53G U55A] | 0.0853 ± 0.029 | 3480 ± 1400 | 0.00112 ± 0.00013 | 0.00332 ± 0.00069 | 0.0112 ± 0.002 | 0.0611 ± 0.023 | 0.065 ± 0.014 |
| AUAAAAGCGCCAGAACUACAGAAAUGUAGUUGACGAGGAGGAGGUUUAUCGAGUUUUCGGCGGGUGCCUCCAAA [A53G A64G] | 0.0648 ± 0.023 | 2430 ± 1000 | 0.00117 ± 0.00012 | 0.00264 ± 0.00067 | 0.0149 ± 0.0022 | 0.0373 ± 0.01 | 0.0493 ± 0.012 |
| AUAAAAGCGCCAGAACUACAGAAAUGUAGUUGACGAGGAGGAGGUUUAUCGAGUUUUCGGCGGAUGCCUGCAAA [A53G C70G] | 0.000195 ± 1.8e-05 | – | 0.000132 ± 2.3e-05 | 0.000309 ± 9.5e-05 | 0.000196 ± 2.9e-05 | 0.000173 ± 2.5e-05 | 0.000215 ± 3.6e-05 |
| AUAAAAGCGCCAGAACUACAGAAAUGUAGUUGACGAGGAGGAGGUUUAUCGACUUUUCGGCGGAUGCCUCUAAA [A53C C71U] | 0.00685 ± 0.001 | 1760 ± 360 | 0.000156 ± 2.5e-05 | 0.000539 ± 0.0001 | 0.00167 ± 0.00036 | 0.00474 ± 0.00067 | 0.00509 ± 0.0011 |
| AUAAAAGCGCCAGAACUACAGAAAUGUAGUUGACGAGGAGGAGGUUUAUCGAGUUUUCGGCGGAUGGCUCCAAA [A53G C67G] | 0.007 ± 0.0028 | – | 0.000155 ± 1.6e-05 | 0.000304 ± 4.6e-05 | 0.00225 ± 0.00035 | 0.00466 ± 0.00096 | 0.00539 ± 0.00069 |
| AUAAAAGCGCCAGAACUACAGAAAUGUAGUUGACGAGGAGGAGGUUUAUCGACAUUUCGGCGGAUGCCUCCAAA [A53C U54A] | 0.00804 ± 0.0035 | – | 0.000184 ± 2.3e-05 | 0.000353 ± 9.2e-05 | 0.00128 ± 0.00018 | 0.00277 ± 0.00065 | 0.00747 ± 0.00098 |
| AUAAAAGCGCCAGAACUACAGAAAUGUAGUUGACGAGGAGGAGGUUUAUCGACUUGUCGGCGGAUGCCUCCAAA [A53C U56G] | 0.00299 ± 0.00066 | 1830 ± 570 | 7.77e-05 ± 1.1e-05 | 0.000166 ± 4.2e-05 | 0.000851 ± 0.00012 | 0.00165 ± 0.00035 | 0.00254 ± 0.00039 |
| AUAAAAGCGCCAGAACUACAGAAAUGUAGUUGACGAGGAGGAGGUUUAUCGACUGUUCGGCGGAUGCCUCCAAA [A53C U55G] | 0.00572 ± 0.0016 | 1640 ± 730 | 0.000162 ± 2.2e-05 | 0.000551 ± 9.1e-05 | 0.00138 ± 0.00025 | 0.00261 ± 0.00039 | 0.00667 ± 0.00076 |
| AUAAAAGCGCCAGAACUACAGAAAUGUAGUUGACGAGGAGGAGGUUUAUCGAGUUUUCGACGGAUGCCUCCAAA [A53G G60A] | 2.61e-05 ± 9.4e-06 | – | – | – | – | 3.68e-05 ± 1e-05 | 1.88e-05 ± 8.7e-06 |
| AUAAAAGCGCCAGAACUACAGAAAUGUAGUUGACGAGGAGGAGGUUUAUCGACUUUGCGGCGGAUGCCUCCAAA [A53C U57G] | 0.000348 ± 0.00012 | – | – | – | 9.98e-05 ± 1.6e-05 | 0.000143 ± 1.9e-05 | 0.000339 ± 4.6e-05 |
| AUAAAAGCGCCAGAACUACAGAAAUGUAGUUGACGAGGAGGAGGUUUAUCGACUUUUCUGCGGAUGCCUCCAAA [A53C G59U] | < 1e-05 | – | – | – | – | – | – |
| AUAAAAGCGCCAGAACUACAGAAAUGUAGUUGACGAGGAGGAGGUUUAUCGACUUUUCGGCGGAUUCCUCCAAA [A53C G66U] | 0.000484 ± 6.4e-05 | 1770 ± 450 | – | 3.36e-05 ± 1.5e-05 | 0.000128 ± 3.6e-05 | 0.000344 ± 8.3e-05 | 0.00039 ± 7.6e-05 |
